Assay results: PMC3690595 (Biochemistry, 2013)

Target: the molecule itself
Test: 2D-DIGE with tandem mass spectrometry of picked spots

B1: βB1-crystallin (natural protein, mouse (endogenous in mouse lens), UniProt Q9WVJ5 1-250, looked up)
chain: MSQAAKASATTAVNPGPDGKGKGAPSTGPAPAPGPTPVPASVPRPAAKVGDLPPGSYRLIVFEQENFQGRRVEFSGECLNLGDRGFDRVRSLIVVSGPWVAFEQSAFRGEMFVLEKGEYPRWDTWTSSYRSDRLMSFRPIRMDSQEHKICLFEGANFKGNTMEIQEDDVPSLWVYGFCDRVGSITVSGGTWVGYQYPGYRGYQYLLEPGDFRHWNEWGAFQPQMQAVRRLRDRQWHQEGCFPVLTAEPPK
  stoichiometry N: 2
